Series [1] deals with T1, full-length recombinant MrkA protein (Klebsiella pneumoniae, UniProt P12267).
T1 construct: purchased MyBiosource MBS1248970
The series is described as follows: Sandwich ELISA of PCC binding to full-length MrkA. As for the experimental part: The screen yielded 26 hits (Table 2) that were sequenced, scaled up, and tested for binding to full-length recombinant MrkA in solution by single-point sandwich Enzyme-linked immunoassays (ELISAs) (FIG. 8). HPraGly is present before X1 in each peptide and Az4 follows X5 in each peptide.
An alanine scan was performed to establish which residues of cy(LLFFF) (SEQ ID NO:5) contribute most to MrkA binding. In this assay, a sandwich ELISA is used to quantify the affinity of several cy(LLFFF) (SEQ ID NO:5) analogues, in which one residue is substituted with an alanine, towards full-length MrkA protein. The ELISA results in FIG. 4 show lower signal for every alanine-substituted cy(LLFFF) (SEQ ID NO:5) analogue compared to unmodified cy(LLFFF) (SEQ ID NO:5), establishing that the native compound has the highest affinity. […] Thus, these two C-terminal phenylalanine residues (FIG. 3A, arrows in inset) play critical roles in MrkA binding, and are targets for modifications to improve binding. Another important detail of these alanine scan results is a strong dependence of MrkA binding on the residue position, independent of residue type. For example, cy(LLAFF) (SEQ ID NO:9) and cy(LLFFA) (SEQ ID NO:11) have very different binding affinities, despite having the same phenylalanine-to-alanine substitution.
In vitro ELISA assays. ELISA assays for MrkA-binding and epitope selectivity were performed on clear NeutrAvidin Coated High Capacity Plates (ThermoFisher, 15507). The buffer used for all washes and to dissolve all compounds was TBST+0.1% BSA (TBS+0.05% Tween 20+0.1% BSA, pH 7.3) and, unless otherwise stated, steps were conducted at room temperature. Each wash involved a brief 20 s agitation, and all conjugation, blocking, and incubation steps were performed with gentle agitation over the entire stated time period. The general procedure for an ELISA assay was: wash 3×200 μL/well, conjugate with 2 μM of biotinylated compound for 2 h at room temperature (100 μL/well), wash 3×200 μL/well, blocked overnight in 5 wt % milk at 4° C., wash […] with wash buffer, incubate with titrated compound (e.g., MrkA or epitope) for 1 h, […], incubate with primary antibody […] for 1 h (100 μL/well), wash 3×200 μL/well, incubate with 1:2,000 anti-rabbit secondary antibody-horseradish peroxidase conjugate (Cell signaling Technologies, 7074S) for 1 h, 3×200 μL/well, develop with the Microwell Peroxidase Substrate System (2-C) (SeraCare, 5120-0047) using 100 μL/well for 1-40 minutes, and quench using 1 M H2SO4 (aq.) at 100 μL/well. For MrkA binding assays, biotinylated PCCs were conjugated to the well surface, recombinant MrkA with an N-terminal 6×His-SUMO-tag (MyBiosource, MBS1248970) was titrated at the desired concentration, and the primary antibody was His-tag antibody, pAb, Rabbit (Genscript, A00174) at a 1:5,000 dilution. For epitope selectivity assays, biotinylated SynEps were conjugated, DNP-conjugated AR-PCCs were titrated at a desired concentration, and the primary antibody was anti-DNP antibody produced in Rabbit (Sigma-Aldrich, D9656) at a 1:8,000 dilution. […] For binding tests in the context of mouse sera, the “titrated compound” described in the steps above was dispersed in a solution containing the desired concentration of mouse serum.
(In general: In an ELISA, binding on a coated surface is turned into a signal by an enzyme label.)

Series [2] can be described thus: Isocratic point of PCCs (C18 prep-scale column elution). It is filed as physicochemical. The source says:
The efficacy of AR-PCCs in vivo will not only depend on target binding, but also pharmacokinetic (PK) properties, of which clearance pathway is an important parameter. […] Modifications include single- and double-residue substitutions, residue removal, and the addition of non-ionic PEG and charged poly-arginine tags (Ri, where i represents the number of arginine). Results of this optimization are shown in FIG. 4B, which plots IP versus the affinity of the compound to MrkA, relative to cy(LLFFF) (SEQ ID NO:5).
PCC compounds were purified on a Waters Autopurification system, which isolated compounds based on MS peaks corresponding to protonated [M+1H]^+ and [M+2H]^2+, and/or sodium adducts [M+Na]^+ and [M+2Na]^2+. The isocratic points of PCCs were determined based on the elution of the compound from a C18 prep-scale column. Synthetic epitopes were either purified on the Waters Autopurification System, or by semi-preparative HPLC and then using matrix-assisted laser desorption/ionization mass spectroscopy to identify fractions with the desired m/z ratio. The resulting peptides were lyophilized, the yield determined by mass difference or UV-visible absorbance, and resuspended at a concentration of up to 10 mM peptide in DMSO. Peptides were stored at −80° C. before thawing for each use.

Series [3] deals with MrkA-expressing K. pneumoniae cells. Kind of series: Whole-cell ELISA of biotinylated PCC binding. The conditions noted are these: biotinylated PCC at 5 μM.
The test system of series [4] is live or heat-killed MRSA cells. The series is described as follows: ELISA of PCC-driven SAv-HRP recruitment to MRSA cells. It is filed as cell-based, Staphylococcus aureus. The conditions noted are these: without or with 0.4 micrograms/mL tunicamycin. As for the experimental part:
FIG. 16A-16B are graphs showing PCC-driven recruitment of streptavidin-horseradish peroxidase (SAv-HRP) conjugate to live MRSA cells (FIG. 16A) or heat-killed MRSA cells (FIG. 16B) cultured under different antibiotic conditions via enzyme-linked Immunosorbent Assays (ELISAs). All tests were conducted by coating the antigen (MRSA cells) onto the wells of 96-well plates and then exposing the wells solutions containing biotinylated PCCs, then SAv-HRP, then HRP substrate followed by detection via absorbance at 450 nm. Absorbance values greater than the “no PCC” background indicate that several PCCs recruit SAv-HRP to either live cells (FIG. 16A) or heat-killed cells (FIG. 16B) cultured either without antibiotic (“−tunicamycin”, first three bars in each set) or with 0.4 micrograms/mL of tunicamycin (“+tunicamycin”, last three bars in each set), which reduces the expression of wall teichoic aids by MRSA. All measurements were conducted in triplicate and error bars reflect standard deviations. […]
The recruitment ability of selected PCCs was assessed by PCC-driven recruitment of streptavidin-horseradish peroxidase (SAv-HRP) conjugate to live MRSA cells (FIG. 16A) or heat-killed MRSA cells (FIG. 16B) cultured under different antibiotic conditions via enzyme-linked Immunosorbent Assays (ELISAs). […]

The test system of series [5] is K. pneumoniae cells (strain BAA 2146). Kind of series: Flow cytometry of AR-PCC-driven opsonization by anti-DNP antibodies. The conditions noted are these: cy(LLFFF)-DNP 1 or 5 μM, cy(HNGPT) control 50 μM, plus fluorescent anti-DNP. In kind it is cell-based, Klebsiella pneumoniae.
Series [6] deals with K. pneumoniae cells (strain BAA 1705). Kind of series: Gentamicin protection assay: phagocytosis and opsonophagocytic killing (OPK) by macrophages. In kind it is cell-based, Klebsiella pneumoniae. The conditions noted are these: macrophages harvested at 6 hrs. As for the experimental part: FIGS. 7A and 7B show a gentamicin protection assay that evaluates EPI-driven phagocytosis and opsonophagocytic killing (OPK) of K. pneumoniae cells by murine bone-marrow-derived macrophages. FIG. 7A is a flow diagram depicting the assay used to evaluate EPI-driven opsonophagocytic killing (OPK) of K. pneumoniae cells. Briefly, K. pneumoniae cells (strain BAA 1705) opsonized by EPIs (AR-PCCs) and anti-DNP antibodies were incubated with macrophages for 1 or 24 h. Macrophages were lysed, and the lysate was plated to obtain bacterial colonies that were subsequently counted. FIG. 7B is a plot of colony counts for various samples subjected to the OPK assay. […] All EPIs (AR-PCCs) were used at a 5 μM concentration, measurements were conducted in triplicate, and error bars reflect standard deviations. cy(LLFFA) is SEQ ID NO:11.
It also tested whether DNP-conjugated EPIs could promote the opsonophagocytic killing (OPK) of K. pneumoniae by macrophages. This was tested by using an OPK assay. Briefly, K. pneumoniae cells were treated with EPI and then anti-DNP antibody before being exposed to macrophages for either 6 or 24 hours. During this incubation period, macrophages that recognize K. pneumoniae cells will phagocytose them, and phagocytosed bacteria will remain viable for up to 6 hours, but within 24 hours are rendered inviable by OPK. Thus, macrophages were isolated after 6 and 24 hours of incubation with K. pneumoniae, lysed them, and plated and grew the lysate, which yielded bacterial colonies that reflect the phagocytosis (at 6 hrs) or OPK (at 24 hrs) of bacteria.
Given that cy(LLFFF)-DNP (SEQ ID NO:5) recruits antibodies to K. pneumoniae surfaces, it was expected that K. pneumoniae opsonized in this manner would be more susceptible to phagocytosis by macrophages. AR-PCC-driven phagocytosis and OPK were quantified by a gentamicin protection assay, as depicted in FIG. 7A. For this assay, K. pneumoniae cells (strain BAA 1705) were treated with cy(LLFFF)-DNP (SEQ ID NO:5), opsonized by anti-DNP antibodies, and then incubated with murine bone-marrow-derived macrophages (BMDMs). BMDMs were subsequently exposed to a solution containing gentamicin, to which K. pneumoniae strain BAA 1705 is susceptible, to kill any extracellular bacteria. Phagocytosed bacteria remain viable inside BMDMs for at least 1 h, yet are rendered inviable after 24 h by OPK (FIG. 13). Macrophages harvested at 1 h and 24 h were lysed and plated to generate bacterial colonies, which were enumerated to quantify phagocytosis and OPK.
Opsonophagocytic killing (OPK) assays. Klebsiella pneumoniae BAA1705 was treated with DNP-PCCs followed by incubation with anti-DNP antibody, as described above in the “Cell-Based ELISAs” section. These opsonized bacteria were then used to infect BMDMs at a multiplicity of infection of 50 for 0.5 h at 37° C. Bacteria were then washed by using RPMI 1640 Media and BMDMs were left in cell culture medium containing gentamicin (100 μg/ml). After 1 h and 24 h BMDMs were washed to remove gentamicin and intracellular bacteria were harvested by lysing BMDMs in RPMI media containing 0.2% Triton X 100. Bacterial CFUs were enumerated by plating onto LB agar. Bacterial counts at 1 h indicated the degree of opsonization while those at 24 h served as a measure of microbicidal activity of macrophages. For these measurements, anti-MrkA antibody and K. pneumoniae antiserum were used at dilutions of 5 μg/mL each.

Entries after “also recorded” stand apart in the source; their conditions may differ. Bridges are numbered along the chain shown (N, C = ends). Where no end group is shown, it is not given here. [ ]: non-standard residue; d: D form. Lys(N3) = [N-]=[N+]=NCCCC[C@H](N)C(=O)O; Pra = C#CC[C@H](N)C(=O)O

T1 sequence (P12267 23-202): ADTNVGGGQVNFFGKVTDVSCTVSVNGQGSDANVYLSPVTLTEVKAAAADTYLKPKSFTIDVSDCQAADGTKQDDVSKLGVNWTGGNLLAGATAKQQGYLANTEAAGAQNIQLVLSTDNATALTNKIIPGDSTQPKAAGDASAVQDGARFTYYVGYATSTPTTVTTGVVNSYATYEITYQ

For cy(LLFFF)+R6, the “binding of MrkA protein in mouse sera” value in series [1] (MrkA protein at 250 nM in 10 and 100% mouse sera) is “binds MrkA protein in the context of sera; also recorded: bound MrkA protein in solutions of 10 and 100% mouse sera, albeit at lower levels versus 0% serum”. The “stronger affinity to MrkA over cy(LLFFF)” value in series [1] (ratio of ELISA signals to cy(LLFFF) reference on same plate) came out at 22%. For the same substance, in series [2], the “reduction / improvement in IP versus cy(LLFFF)” value is listed as about 35%. Moreover, the “isocratic point (IP)” value in series [2] (elution from C18 prep-scale column) is listed as about 40%. The “whole-cell ELISA signal, K. pneumoniae BAA 1705 and BAA 2146” value in series [3] was “similarly high selectivity towards MrkA-expressing cells”.

As to “cy(kpdew): PCC to MRSA peptidoglycan, D-amino acids ([Lys(N3)][dK][dP][dD][dE][dW]X; bridge 1-7; not fully specified (residue 7, bridges); printed as cy(kpdew))”, the “SAv-HRP recruitment to MRSA cells” value in series [4] is on record as “Standout recruiting peptides”.

As to “cy(HNGPT): non-MrkA-binding dummy ligand ([Lys(N3)]HNGPT[Pra]; triazole 1-7) [reference compound]”, in series [5], the “fluorescence of cells (opsonization by anti-DNP)” value is recorded as “Slightly greater fluorescence”. Besides, in series [6], the “CFU at 6 hrs, DNP-conjugated EPI and anti-DNP antibody” value is on record as “did not promote any phagocytosis”; the “cell counts at 6 hrs, DNP-conjugated EPI without antibody” value is ~35,000. Moreover, the “whole-cell ELISA signal, K. pneumoniae BAA 1705 and BAA 2146” value in series [3] is recorded as “comparably lower signal; also recorded: no or minimal binding above baseline”.

Turning to “cy(akkrp) ([Lys(N3)][dA][dK][dK][dR][dP]X; bridge 1-7; not fully specified (residue 7, bridges); printed as cy(akkrp))”, in series [4], the “SAv-HRP recruitment to MRSA cells” value was “Standout recruiting peptides”.

Regarding “Ref. compound (LLFFF; not fully specified (bridges); printed as cy(LLFFF); also: cyclised (cy), ring-closing ends (Pra and azidolysine) not shown in this chain)”, the “Relative affinity (ratio of ELISA signal versus cy(LLFFF))” value is listed as 1.00 in series [1] (ELISA 1, [MrkA] for ELISA N/A); 1.00 in series [1] ([MrkA] for ELISA 25 nM (ELISA 2, 5, 6)); 1.00 in series [1] ([MrkA] for ELISA 50 nM (ELISA 3)); 1.00 in series [1] ([MrkA] for ELISA 100 nM (ELISA 4)). For the same substance, the “Isocratic point (%)” value came out at 74.53% in series [2] (N-terminal tag Bio-Peg10-peg10-), 78.85% in series [2] (N-terminal tag Bio-peg5-) and 75.88% in series [2] (N-terminal tag Bio-peg10-).
